Measurements as given in the nanobody polyreactivity screen of Harvey et al. (2022).

experiment: yeast display, Sf9 membrane polyspecificity reagent, FACS + sequencing; frameworks hold sequencing errors
Outline: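 Polyreactivity labels are assigned by the sorting gate from which each nanobody was recovered. The gates were low and high (top ~1%), set on anti-HA fluorescence for expression and streptavidin fluorescence for reagent binding. Before sorting, galactose-induced (36–48 hours) yeast display cells were stained for 1 hour at 4 °C with 10% biotinylated, detergent-solubilized Sf9 membrane reagent.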

Sequence	polyreactivity (PSR sort gate)
QVQLVESGGGLVQAGGSLRLSCAASGSISYFYAMGWYRQAPGKERELVADINSGDDTYADSVKGRFTISRDNAKNTVYLQMNSLKPEDTAVYYCSVKYGGYESHYYRRPHYDYWGQGTQVTVSS	low polyreactivity
QVQLVESGGGLVQAGGSLRLSCAASGSISYINAMGWYRQAPGKERELVARIRSGDRTNYADSVKGRFTISRDNAKNTVYLQMNSLKPEDTAVYYCAARGLRTGGYWGQGTQVTVSS	high polyreactivity
QVQLVESGGGLVQAGGSLRLSCAASGSISYKYALGWYRQAPGKERELVAAISSSGGRTYYADSVKGRFTISRDNAKNTVYLQMISLKPEDTAVYYCNARTGTTWQGYEYDYWGQGTQVTVSS	low polyreactivity
QVQLVESGGGLVQAGGSLRLSCAASGSISYKYVMGWYRQAPGKEREFVASITRIGGSTYYADSVKGRFTISRDNAKNTVYLQMNSLKPEDTAVYYCARDYDYWSWPSAYDYWGQGTQVTVSS	low polyreactivity
QVQLVESGGGLVQAGGSLRLSCAASGSISYRYVMGWYRQAPGKERELVAAITTSGGSTYYADSVKGRFTISRDNAKNTVYLQMNSLKPEDTAVYDCAAKHNVYRYSRYYWGQGTQVTVSS	high polyreactivity
QVQLVESGGGLVQAGGSLRLSCAASGSISYTYAMGWYRQAPGKERELVAAISYSDGITYYADSVKGRFTISRDIAKNTVYLQMNSLKPEDTAVYYCAVEGVYPYYDQSEYDYWGQGTQVTVSS	high polyreactivity
QVQLVESGGGLVQAGGSLRLSCAASGSITPRNAMGWYRQAPGKERELVARISGSGGTTYYADSVKGRFTISRDNAKNTVYLQMKSLKPEDTAVYYCAASVRWNKYTLYDYWGQGTQVTVSS	low polyreactivity
QVQLVESGGGLVQAGGSLRLSCAASGSITSNVMGWYRQAPGKEMELVAAISRGGGSTYYADSVKGRFTISRDNAKNTVYLQMNSLKPEDTAVFYCAADVWGGLLPGYDYWGQGTQVTVSS	high polyreactivity
QVQLVESGGGLVQAGGSLRLSCAASGSIVAYNAMAWYRQAPGKEWELVAAINSGSLTYYADSVTGRFTISRDNAKYTVYLPMNSLKPEDTAVYYCAAEWERWYYRYDYWGQGTQVTVSS	high polyreactivity
QVQLVESGGGLVQAGGSLRLSCAASGSIVDYNAMGGYRQAPGKERELVAAISVNGGNTYYADSVKGRFTISRDYAKNTVYFQMNTLKPEDTAVYYCAADSYGGSKYDYWGQGTQVTLSS	low polyreactivity
QVQLVESGGGLVQAGGSLRLSCAASGSIVGSNAMGWYRQAPGKERELVAAITWSDGSPYYADSVKGRFTISRDNAKNTVYLQMNRLKPEDTAVYVCATDYGYSWYDYWGQGTQVTVSS	low polyreactivity
QVQLVESGGGLVQAGGSLRLSCAASGSIVRRYAMGWYRQAPGKEREFVAAISKRGGGTYYADSVKGRFTISRDNAKNTVYLQMNSLKPEDTAVYYCAAPWRRIGYTTRGYTLYDYWGQGTQVTVSS	high polyreactivity
QVQLVESGGGLVQAGGSLRLSCAASGSIVRYYAMGWYRQAHGKEREFVAAISWSGGSTYYADSVKGRFTISRDNAKKTVYLQRNSLKPEDTAVFFCATTPGVWSTGGTNGFGYWGQGTQVTVSS	high polyreactivity
QVQLVESGGGLVQAGGSLRLSCAASGSIVSYYAMGWYRKAPGKERELVAAISKSGGRTYYADSVKGRFTISRDNAKNTVYLQMNSLKPEDTAVYYCAAPATYKYEYWGQGTQVTVSS	high polyreactivity
QVQLVESGGGLVQAGGSLRLSCAASGSIVVDYAMGWYRQAPGKERELVAAITSTGSTTYADSVKGRFTISRDNAKNTVYLQMNSLKPEDTAVYYCAASFRWYGTVRYPYEMYYWGQGTQVTVSS	low polyreactivity
QVQLVESGGGLVQAGGSLRLSCAASGSIVYVYAMGWYRQAPGKEREVVAAINTSGGSTYADSVKGRFTISRDNAKNTVYLQMNSLKPEDTAVYYCAADGYYEYTWGEYDSWGQGTQVTVSS	low polyreactivity
QVQLVESGGGLVQAGGSLRLSCAASGSIYDFYAMGWYRQAPGKERELVAAISWSGTSTYYADSVKGRFTISRDNAKNTVYLQMNSLKPEDTAVYYCAVVAGQSYFNRYDYWGQGTQVTVSS	low polyreactivity
QVQLVESGGGLVQAGGSLRLSCAASGSIYFTNAMGWYRQAPGKERELVAAIRWRGDRTYYADSVKGRFTISRDNGKNTVYLQMNSLIPEDTAVYYCAVAPSYKITEDSWGQGTQVTVSS	low polyreactivity
QVQLVESGGGLVQAGGSLRLSCAASGSIYGPYAMGLYRQAPGKERELVAAISSGGSTYYADSVKGRFTISRDNAKNTVYLQMNSLKPEDTAVYYCNKYWGFSYLPYDSWGQGTQVTVSS	low polyreactivity
QVQLVESGGGLVQAGGSLRLSCAASGSIYGTNAMGWYRQAPGKERELVSAIDGGSTTYYADSVKGRFTISRDNAKNTVYLQMNSLKPEDTAVYYCAADGTRYLNYEGYAGYEYWGQGTQVTVSS	low polyreactivity
QVQLVESGGGLVQAGGSLRLSCAASGSIYGYVKGWYRPAPGKERELVAAIRRSGGSTYYADSVKGRFTISRDNAKNTVYLQMNSLKPEDTAVYYCAARTYGTDRYYYWGQGTQVTVSS	high polyreactivity
QVQLVESGGGLVQAGGSLRLSCAASGSIYHVYALGWYRQAPGKERELVATISSGGSTYYADSVKGRFTISRDNEKNTVYLQMNSLKPEDTAVYYCNADWFLYGGWYGYGYWGQGTQVTVSS	low polyreactivity

Sequence	polyreactivity (PSR sort gate)
QVQLVESGGGLVQAGGSLRLSCAASGSIYINARGWYRQAPGKERELVAAISSGGSTNYADSVKGRFTISRDNAKNTVYLQMNSLKPEDTAVFYCATRRYRGPWYRNAYDYWGQGTQVTVSS	low polyreactivity
QVQLVESGGGLVQAGGSLRLSCAASGSIYLIYAMGWYRQAPGKERELDAAISRSGGHTYYADSVKGRFTISRDNAKITVYLQMNSLKPEDTAVYYCAAKSYSSGTYGYNYWGQGTQVTVSS	high polyreactivity
QVQLVESGGGLVQAGGSLRLSCAASGSIYLKYAMGWYRQAPGKERELVAAISSRGGSTYYADSVKGRFTISRDNAKNTVYLQMNSLKPEDTAVYYCAAKRWPGTDGYWGQGTQVTVSS	high polyreactivity
QVQLVESGGGLVQAGGSLRLSCAASGSIYLYAMGWYIQAPGKERELVADISFSDGSTYYADSVKGRFTISRDNAKNTVYLQMNSLKPEDTAVYYCAAGVWHHASWDFLEYYYWGQGTQVTVSS	low polyreactivity
QVQLVESGGGLVQAGGSLRLSCAASGSIYQYNAMGWYRQAPGKERELVAAISSRGGITYYADSVKGRFTISRDNAKNTVYLQMNSLKPEDTAVYYCAAEGYYSEVRWYEYWGQGTQVTVSS	high polyreactivity
QVQLVESGGGLVQAGGSLRLSCAASGSIYSRNAMGWYRQAPGKERELVAGISTGGSTNYADSVKGRFTISRDNAKNTVYLQMNSLKPEDTAVYYCAAPLAYEGDYWGQGSQVTVSS	low polyreactivity
QVQLVESGGGLVQAGGSLRLSCAASGSIYTRYPMGWYRQAPGKERELVAAISINGGSTYYADSVKGRFTISRDNAKNTVYLHMNSLKPEDTAVYYCARHYYRWNNFLYLSGYYWGQGSQVTVSS	high polyreactivity
QVQLVESGGGLVQAGGSLRLSCAASGSIYTYYAMGWYRQAPGKEMELVADIRWSGGSTYYADSVKGRFTISRDNAKNTVYLQMNSLKPEDTAVYYCNARYYSYCPIYNFDYWGQGTQVTVSS	low polyreactivity
QVQLVESGGGLVQAGGSLRLSCAASGSIYTYYAMGWYRQAPGKERELVAAINSGGRTNYADSVKGRFTISRDNAKNTVYLQMNSLKPEDTAVYYCAADGSVSYYTYYYWGQGTQVTVSS	low polyreactivity
QVQLVESGGGLVQAGGSLRLSCAASGSIYYNAMGWYRQAPGKERELVASISTGDSTDYADSVKGRFTISRDNAKNTFYLQMNSLKPEDTAVYYCAADTRLGYWDDYWGQGTQVTVSS	low polyreactivity
QVQLVESGGGLVQAGGSLRLSCAASGSIYYRNGMGWYRQAPGKEREFVATITNNGGNTYYADSVKGRFTISRDNAKNTVYLQLNSLKPDDTAVYYCAAGPTWSWGYYYWGQGTQVTVSS	high polyreactivity
QVQLVESGGGLVQAGGSLRLSCAASGSKFWGYAMGWYRKAAGKERELVAAITDSGGRTYYADSVKGRFTISRDNEKNTVYLQMNSLKPEDTAVYYCAADYYSQYYYYAVPDRDYWGQGTQVTVSS	low polyreactivity
QVQLVESGGGLVQAGGSLRLSCAASGSLFYPYAMGWYRQAPGKERELVAAIDLSGGSTYYADAVKGRFTISRDNAKNTVYLQMNSLKPEDTAVYYCAADYGYTYAYDYWGQGTQVTVSS	low polyreactivity
QVQLVESGGGLVQAGGSLRLSCAASGSLFYYYPMGWYRQAPGKERELVATINISDRSTYYADSVKGRFTISRDYAKNTVYLQMNSLKPEDTAVYDCAAYYYFQDYDYWGQGTQVTVSS	low polyreactivity
QVQLVESGGGLVQAGGSLRLSCAASGSLSYTYGMGCYRQAPGKERELVAAISTSGGNTYYADSVKGRFTISRDNAKNSVYLQMNSLKPEDTAVYYCSAYYGRGSIKRYYYWGQGTQVTVSS	high polyreactivity
QVQLVESGGGLVQAGGSLRLSCAASGSMFANNAMGWYRQAPGKERELVAAITSGGNTDNADSVKGRFTISRDNAKYTVYLQMNSLKPEDTAVYYCAAERPPYGYLVVGYVSTQYYYWGQGTQVTVSS	low polyreactivity
QVQLVESGGGLVQAGGSLRLSCAASGSMFIWNAMGWYRQAPGKARELVAAISFTGTSTYYADSVKGRCTSSRDNAKNTVYLQMNSLKPEDTAVYYCNTDYRGSQYDYWVQGTQVTVSS	low polyreactivity
QVQLVESGGGLVQAGGSLRLSCAASGSMFVRYAMGWYRQAPGKERELVAAISSDGNTYYADSVKGRFTISRDNAKNTVYLPRNSLKPEDTAVYYCAAKTRSRYYWGQGTQVTVSS	high polyreactivity
QVQLVESGGGLVQAGGSLRLSCAASGSMFYFYAMGWYRQAPGKERELVAAISWCDGDTYYADSVKGRFTISRDNAKNTVYLQMNSLKPEDSAVYYCAAEGLTRYYQYDYWGQGTQVTVSS	high polyreactivity
QVQLVESGGGLVQAGGSLRLSCAASGSMIAFYVMGLYRQAPGKERELVAAINRGGTNTYYADSVKGRFTISRDNAKNTVYLQMNSLKPEDTAVYYCAADGDRSAQRYTGYYYWGQGTQVTVSS	high polyreactivity
QVQLVESGGGLVQAGGSLRLSCAASGSNFDLNAMGWYRQAPGKERELVAAISSGGGTYYADSVKGRFTISRDNAKTPVYLQMNSLKPEDTAVYYCNRVTRWTYNYWGQGTQVTVSS	high polyreactivity
